B1: full-length mouse KIF5AA homodimer (kinesin-1), unlabeled (natural protein, UniProt P33175 1-1027, looked up)
chain: MAETNNECSIKVLCRFRPLNQAEILRGDKFIPIFQGDDSVIIGGKPYVFDRVFPPNTTQEQVYHACAMQIVKDVLAGYNGTIFAYGQTSSGKTHTMEGKLHDPQLMGIIPRIARDIFNHIYSMDENLEFHIKVSYFEIYLDKIRDLLDVTKTNLSVHEDKNRVPFVKGCTERFVSSPEEILDVIDEGKSNRHVAVTNMNEHSSRSHSIFLINIKQENVETEQKLSGKLYLVDLAGSEKVSKTGAEGAVLDEAKNINKSLSALGNVISALAEGTKSYVPYRDSKMTRILQDSLGGNCRTTMFICCSPSSYNDAETKSTLMFGQRAKTIKNTASVNLELTAEQWKKKYEKEKEKTKAQKETIAKLEAELSRWRNGENVPETERLAGEDSALGAELCEETPVNDNSSIVVRIAPEERQKYEEEIRRLYKQLDDKDDEINQQSQLIEKLKQQMLDQEELLVSTRGDNEKVQRELSHLQSENDAAKDEVKEVLQALEELAVNYDQKSQEVEEKSQQNQLLVDELSQKVATMLSLESELQRLQEVSGHQRKRIAEVLNGLMRDLSEFSVIVGNGEIKLPVEISGAIEEEFTVARLYISKIKSEVKSVVKRCRQLENLQVECHRKMEVTGRELSSCQLLISQHEAKIRSLTEYMQTVELKKRHLEESYDSLSDELARLQAHETVHEVALKDKEPDTQDAEEVKKALELQMENHREAHHRQLARLRDEINEKQKTIDELKDLNQKLQLELEKLQADYERLKNEENEKSAKLQELTFLYERHEQSKQDLKGLEETVARELQTLHNLRKLFVQDVTTRVKKSAEMEPEDSGGIHSQKQKISFLENNLEQLTKVHKQLVRDNADLRCELPKLEKRLRATAERVKALEGALKEAKEGAMKDKRRYQQEVDRIKEAVRYKSSGKRGHSAQIAKPVRPGHYPASSPTNPYGTRSPECISYTNNLFQNYQNLHLQAAPSSTSDMYFASSGATSVAPLASYQKANMDNGNATDINDNRSDLPCGYEAEDQAKLFPLHQETAAS

Assays:
[1] = target: B1; assay: TIRF-M in vitro motility reconstitution
[2] = target: APC-mGFP (UniProt Q61315 1-2845); assay: TIRF-M in vitro motility reconstitution

| binding result [1] | binding result [2] | Binder |
| --- | --- | --- |
| binds | – | C-terminal APC fragment (APC-C), residues 2,163 to 2,845 (domain or fragment, UniProt Q61315 2163-2845, looked up, Alexa647 label (APC-C-647, in the TIRF-M experiments)) KGPRILKPGEKSTLEAKKIESENKGIKGGKKVYKSLITGKIRSNSEISSQMKQPLPTNMPSISRGRTMIHIPGLRNSSSSTSPVSKKGPPLKTPASKSPSEGPGATTSPRGTKPAGKSELSPITRQTSQISGSNKGSSRSGSRDSTPSRPTQQPLSRPMQSPGRNSISPGRNGISPPNKLSQLPRTSSPSTASTKSSGSGKMSYTSPGRQLSQQNLTKQASLSKNASSIPRSESASKGLNQMSNGNGSNKKVELSRMSSTKSSGSESDSSERPALVRQSTFIKEAPSPTLRRKLEESASFESLSPSSRPDSPTRSQAQTPVLSPSLPDMSLSTHPSVQAGGWRKLPPNLSPTIEYNDGRPTKRHDIARSHSESPSRLPINRAGTWKREHSKHSSSLPRVSTWRRTGSSSSILSASSESSEKAKSEDERHVSSMPAPRQMKENQVPTKGTWRKIKESDISPTGMASQSASSGAASGAESKPLIYQMAPPVSKTEDVWVRIEDCPINNPRSGRSPTGNTPPVIDSVSEKGSSSIKDSKDSKDTHGKQSVGSGSPVQTVGLETRLNSFVQVEAPEQKGTEAKPGQSNPVSIAETAETCIAERTPFSSSSSSKHSSPSGTVAARVTPFNYNPSPRKSSADSTSARPSQIPTPVSTNTKKRDSKTDITESSGAQSPKRHSGSYLVTSV |
| – | binds | B1 |

— paper PMC9897468 (Proceedings of the National Academy of Sciences of the …, 2022)
